The target in data set [1] is Cry3Bb.11032 (D165G) (Bacillus thuringiensis) (UniProt Q06117). Put plainly: cell-based or functional assay.
Data set [2] concerns the molecule itself. Nature of the data set: SDS-PAGE of unheated samples, Coomassie stain, self-association.

In the case of “Cry3Bb.11032 (D165G) (from UniProt Q06117 1-652)”, the initial channel conductances when the protein is artificially incorporated into the membrane in data set [1] came out at 16 fold.

B1: Cry3Bb.60 (60 kDa trypsin-truncated Cry3Bb, first 159 residues removed) (other)
chain: SKRSQDRIRELFSQAESHFRNSMPSFAVSKFEVLFLPTYAQAANTHLLLLKDAQVFGEEWGYSSEDVAEFYHRQLKLTQQYTDHCVNWYNVGLNGLRGSTYDAWVKFNRFRREMTLTVLDLIVLFPFYDIRLYSKGVKTELTRDIFTDPIFSLNTLQEYGPTFLSIENSIRKPHLFDYLQGIEFHTRLQPGYFGKDSFNYWSGNYVETRPSIGSSKTITSPFYGDKSTEPVQKLSFDGQKVYRTIANTDVAAWPNGKVYLGVTKVDFSQYDDQKNETSTQTYDSKRNNGHVSAQDSIDQLPPETTDEPLEKAYSHQLNYAECFLMQDRRGTIPFFTWTHRSVDFFNTIDAEKITQLPVVKAYALSSGASIIEGPGFTGGNLLFLKESSNSIAKFKVTLNSAALLQRYRVRIRYASTTNLRLFVQNSNNDFLVIYINKTMNKDDDLTYQTFDLATTNSNMGFSGDKNELIIGAESFVSNEKIYIDKIEFIPVQL
notes: Made by trypsin digestion of solubilized Cry3Bb, which cleaves after R159; The range counts on wild-type Cry3Bb; also called CryB2.60; Δ1-159
For B1, in data set [2], the binding result is on record as “binds”.

The values above are taken from EP1801220A2 (Monsanto Technology, LLC, dated 2007).
